Data on five molecules can be found in article PMC4510711.

For series [1], the target named is T1, RC3H1-N2 (RING+ROQ+CCCH Zn finger) (Homo sapiens, UniProt Q5TC82 2-452).
T1 sequence: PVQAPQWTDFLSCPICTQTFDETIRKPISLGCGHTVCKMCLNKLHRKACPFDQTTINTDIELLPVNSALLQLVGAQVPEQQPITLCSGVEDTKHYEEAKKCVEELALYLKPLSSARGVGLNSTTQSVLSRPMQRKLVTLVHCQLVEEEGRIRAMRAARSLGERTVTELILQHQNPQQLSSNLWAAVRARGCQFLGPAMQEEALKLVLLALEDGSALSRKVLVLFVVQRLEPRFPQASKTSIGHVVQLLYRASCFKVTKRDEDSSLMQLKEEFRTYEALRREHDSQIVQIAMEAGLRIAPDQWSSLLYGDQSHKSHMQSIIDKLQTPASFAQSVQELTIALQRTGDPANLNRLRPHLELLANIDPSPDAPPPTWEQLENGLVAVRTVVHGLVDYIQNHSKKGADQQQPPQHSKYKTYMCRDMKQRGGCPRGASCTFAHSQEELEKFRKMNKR
The series can be described thus: EMSA; EMSA: 20 mM Tris-HCl pH 7.5, 50 mM KCl, 5 mM MgCl2, 20 uM ZnSO4, 10% glycerol, 2 mM DTT, 0.05 mg/ml BSA, 5 ug/ml heparin; 50 fmol RNA in 20 ul, room temperature.

Series [2] addresses T1, RC3H1-N2 (RING+ROQ+CCCH Zn finger). The series can be described thus: EMSA; complex formation seemed independent of the Zn finger; EMSA: 20 mM Tris-HCl pH 7.5, 50 mM KCl, 5 mM MgCl2, 20 uM ZnSO4, 10% glycerol, 2 mM DTT, 0.05 mg/ml BSA, 5 ug/ml heparin; 50 fmol RNA in 20 ul, room temperature. Background: In EMSA bound probe runs differently from free probe, usually more slowly.

A further series deals with T2, RC3H1-N1 (RING+ROQ) (Homo sapiens, UniProt Q5TC82 2-399).
T2 sequence: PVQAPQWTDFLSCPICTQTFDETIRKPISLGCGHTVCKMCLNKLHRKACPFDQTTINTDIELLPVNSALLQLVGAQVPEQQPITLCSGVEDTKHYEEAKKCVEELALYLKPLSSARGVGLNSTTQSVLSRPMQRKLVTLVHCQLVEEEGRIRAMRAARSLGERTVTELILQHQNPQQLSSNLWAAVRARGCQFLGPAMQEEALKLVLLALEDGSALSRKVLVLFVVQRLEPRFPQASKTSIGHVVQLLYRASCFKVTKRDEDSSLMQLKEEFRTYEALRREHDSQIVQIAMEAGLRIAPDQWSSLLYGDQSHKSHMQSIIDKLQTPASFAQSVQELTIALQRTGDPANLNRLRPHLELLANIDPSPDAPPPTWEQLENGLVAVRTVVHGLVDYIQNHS
As to the kind of experiment: EMSA; EMSA: 20 mM Tris-HCl pH 7.5, 50 mM KCl, 5 mM MgCl2, 20 uM ZnSO4, 10% glycerol, 2 mM DTT, 0.05 mg/ml BSA, 5 ug/ml heparin; 50 fmol RNA in 20 ul, room temperature.

Series [3] addresses T1, RC3H1-N2 (RING+ROQ+CCCH Zn finger). As to the kind of experiment: EMSA; higher affinity than the 21-nt hairpin; EMSA: 20 mM Tris-HCl pH 7.5, 50 mM KCl, 5 mM MgCl2, 20 uM ZnSO4, 10% glycerol, 2 mM DTT, 0.05 mg/ml BSA, 5 ug/ml heparin; 50 fmol RNA in 20 ul, room temperature.
Series [4] shares this target. The series can be described thus: EMSA; virtually unaffected vs WT; EMSA: 20 mM Tris-HCl pH 7.5, 50 mM KCl, 5 mM MgCl2, 20 uM ZnSO4, 10% glycerol, 2 mM DTT, 0.05 mg/ml BSA, 5 ug/ml heparin; 50 fmol RNA in 20 ul, room temperature.

For CCUCCCCCCCUGCCCCCCAGC (ssRNA) [Mut3 (21 nt) control], the binding result in series [1] is reported as “no binding”.

For the molecule CCCUUACAUUAUGUAUGAGGG (structured_RNA) [A20 (21 nt) stem-loop WT], in series [1], the binding result is given as “binds”.

For the molecule AUUUCUGUGAAAU (structured_RNA) [ICOS (13 nt) CDE-like stem-loop], the binding result (in series [2]; with RC3H1-N1 (RING+ROQ)) was “binds” each time.

Consider AUAUAUAAUAUACCCUUACAUUAUGUAUGAGGGAUUU (structured_RNA) [A20 (37 nt) ARE-stem-loop], for which, in series [3], the binding result was “binds”.

CCCUUACAUAAUGUAUGAGGG (structured_RNA) [Mut1 (21 nt)]: the binding result in series [4] is “binds”.
